The source of these data is paper PMC7641127, “MCL1 binds and negatively regulates the transcriptional function of tumor suppressor p73” (Cell Death & Disease, 2020).

The test has as its target recombinant MCL1 (human) (UniProt Q07820). Description: fluorescence polarisation; direct FPA: recombinant MCL1 with FITC-peptide, 30 min, 1× PBS pH 7.4; limit of detection of the probe 5 nM. (Fluorescence polarisation rises when a labelled molecule tumbles more slowly, as on binding a larger partner.)

*: point of attachment. FITC = O=C1OC2(c3ccc(O)cc3Oc3cc(O)ccc32)c2ccc(NC(=S)*)cc21; Ahx = NCCCCCC(=O)O Some results are limits rather than exact numbers.

recombinant MCL1 (human), sequence (Q07820 whole entry): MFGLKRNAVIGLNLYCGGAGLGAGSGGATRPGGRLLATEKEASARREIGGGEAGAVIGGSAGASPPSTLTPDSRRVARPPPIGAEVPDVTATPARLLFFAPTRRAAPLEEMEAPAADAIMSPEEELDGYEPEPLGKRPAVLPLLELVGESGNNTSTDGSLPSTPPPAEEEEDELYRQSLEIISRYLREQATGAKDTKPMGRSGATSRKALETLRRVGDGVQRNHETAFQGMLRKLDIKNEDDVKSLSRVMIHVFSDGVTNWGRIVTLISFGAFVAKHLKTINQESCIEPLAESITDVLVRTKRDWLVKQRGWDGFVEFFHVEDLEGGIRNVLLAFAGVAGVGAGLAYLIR

A word on the Kd: it is the equilibrium constant for the complex coming apart. In the case of {FITC-Ahx}-GQVGRQLAIIGDDINRRYD-NH2 [FITC-AHX-BAK peptide], the Kd was < 5 nM.
